How the values were obtained:
Rec = conditions: presence of Ca^2+; cited from earlier work
Excerpt: Solvation of their large hydrophobic surfaces might influence the intera ...

Dynamic light scattering = type: physicochemical; conditions: 37 °C, fractions eluted from SEC (CIB2 A2 band), mean ± SEM; n = 15 (CIB2), 18 (Rec), 30 (CaM); 1.8 µM CIB2, 11 µM Rec, 7.4 µM CaM
Description: DLS measurements were performed using Zetasizer Nano-S (Malvern Instruments) at 37 °C by setting the same parameters for hydrodynamic diameter estimation as in ref.[26]. The estimation was based on 15–30 measurements, each consisting of at least 13 repetitions; data in Table 1 are reported as mean ± standard error of mean (SEM). DLS samples for each protein are the same collected in the Analytical Size Exclusion Chromatography.
His-tagged proteins, and then blocked via amine coupling as explained above. Preparation of the […]
approximately 2250 RU of CIB2 immobilized. In binding experiments, peptide concentration was varied in the 230 nM- 30 μM range for both α7B_M, and α7B_C, and experiments were repeated 4 times, both with the HBS buffer described above (containing 1 mM MgCl2) and with further addition of 2 mM CaCl2. Flow rate was set to 20 μl min−1 in all binding experiments, and the dissociation […]
Figure S1: DLS measurements of the SEC collected peaks. CIB2 band A2 (A), Rec (B) and CaM (C). Each data set consisted of 15-30 measurements (grey lines), with 13-15 repetitions each. Colored lines are referred to the average distribution. Temperature was set to 37°C and samples were equilibrated for 2 min before measurements.
Figure S2: Time-resolved proteolysis experiments. […]

[1] = Analytical size exclusion chromatography; type: physicochemical; conditions: analytical SEC, 20 mM HEPES pH 7.4, 150 mM KCl, 1 mM DTT, 1 mM Mg^2+, 2 mM Ca^2+; CIB2 ∼70 µM (A2 band), Rec ∼80 µM, CaM ∼110 µM
Description: The molecular weight (MW) of the proteins was determined before and after DSBU-modification as previously described[7] in the same buffer (20 mM HEPES, pH 7.5, 1 mM DTT, 1 mM Mg^2+ and 2 mM Ca^2+). […] Standard calibration curve for MW estimation was the same used in our previous study.

B1: Rec: bovine Rec, Ca^2+-sensor protein (protein, UniProt P21457 2-202, looked up)
Recoverin: GNSKSGALSKEILEELQLNTKFTEEELSSWYQSFLKECPSGRITRQEFQTIYSKFFPEADPKAYAQHVFRSFDANSDGTLDFKEYVIALHMTSAGKTNQKLEWAFSLYDVDGNGTISKNEVLEIVTAIFKMISPEDTKHLPEDENTPEKRAEKIWGFFGKKDDDKLTEKEFIEGTLANKEILRLIQFEPQKVKEKLKEKKL
Rec
  concentration above which dimers were isolated: above 100 μM
Dynamic light scattering
  DLS Ø hydrodynamic diameter: 5.0 ± 0.1 nm
[1]
  MW^SEC: 33.5 kDa

— article PMC6803640, “Oligomeric state, hydrodynamic properties and target recognition of human Calcium and Integrin Binding protein 2 (CIB2)” (Scientific Reports, 2019)
